From PMC9846428, “EEPD1 promotes repair of oxidatively-stressed replication forks” come the findings set out here.

The target of data set [1] is T1, EEPD1 (Homo sapiens) (UniProt Q7L9B9).
T1 sequence: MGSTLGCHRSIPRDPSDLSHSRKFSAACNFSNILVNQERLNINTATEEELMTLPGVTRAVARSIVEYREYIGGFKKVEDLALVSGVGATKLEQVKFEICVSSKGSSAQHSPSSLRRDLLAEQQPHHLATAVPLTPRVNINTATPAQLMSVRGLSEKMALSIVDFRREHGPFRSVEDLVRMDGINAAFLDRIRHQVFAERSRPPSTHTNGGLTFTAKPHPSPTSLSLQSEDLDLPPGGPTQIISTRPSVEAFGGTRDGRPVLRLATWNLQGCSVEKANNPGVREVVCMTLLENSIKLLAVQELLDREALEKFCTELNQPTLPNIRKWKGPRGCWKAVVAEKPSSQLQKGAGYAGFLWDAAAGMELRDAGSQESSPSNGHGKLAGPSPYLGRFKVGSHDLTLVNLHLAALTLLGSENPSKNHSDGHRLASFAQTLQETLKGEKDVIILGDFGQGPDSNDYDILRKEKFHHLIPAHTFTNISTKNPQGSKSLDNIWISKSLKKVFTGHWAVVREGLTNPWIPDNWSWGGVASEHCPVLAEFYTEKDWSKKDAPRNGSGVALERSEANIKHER
Nature of the data set: fluorescence polarization. The conditions noted are these: 5 nM DNA, no Mg2+ listed, THF at nt 15 of strand 1 (N), EMSA: 20 mM HEPES pH 7.9, 1 mM DTT, 30 mM NaCl, 0.03% NP-40, 10% glycerol, 1 ug poly(dI-dC), 20 min room temperature, FP: 10 mM HEPES pH 7.5, 50 mM KCl.

The target of data set [2] is APE1 (Homo sapiens) (UniProt P27695). Nature of the data set: fluorescence polarization. The conditions noted are these: 5 nM DNA, no Mg2+ listed, THF at nt 15 of strand 1 (N), EMSA: 20 mM HEPES pH 7.9, 1 mM DTT, 30 mM NaCl, 0.03% NP-40, 10% glycerol, 1 ug poly(dI-dC), 20 min room temperature, FP: 10 mM HEPES pH 7.5, 50 mM KCl.
APE1 (Homo sapiens), sequence (P27695 whole entry): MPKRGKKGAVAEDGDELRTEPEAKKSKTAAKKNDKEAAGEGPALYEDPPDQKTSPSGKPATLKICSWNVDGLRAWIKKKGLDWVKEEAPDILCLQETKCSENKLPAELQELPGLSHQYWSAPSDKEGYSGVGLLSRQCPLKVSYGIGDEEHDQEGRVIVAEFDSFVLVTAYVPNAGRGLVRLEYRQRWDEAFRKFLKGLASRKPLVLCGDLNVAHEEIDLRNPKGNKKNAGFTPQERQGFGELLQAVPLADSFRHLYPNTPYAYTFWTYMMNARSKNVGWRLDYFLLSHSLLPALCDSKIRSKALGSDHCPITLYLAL
Data set [3] has as its target T2, EEPD1 (Homo sapiens, UniProt Q7L9B9 1-569).
T2 sequence: T1 sequence
The data set is described as follows: EMSA; 1 ug poly(dI-dC); less than THF fork; EMSA: 20 mM HEPES pH 7.9, 1 mM DTT, 30 mM NaCl, 0.03% NP-40, 10% glycerol, 1 ug poly(dI-dC), 20 min room temperature; FP: 10 mM HEPES pH 7.5, 50 mM KCl, 5 nM DNA, 0-1000 nM protein. The settings on record: protein: recombinant; tags: FLAG; label: 32P 5'-end; fork 1:2 1:3 2:4.

Take “CATGCAGCTGATGCNTACAACACACTGTG / TTTTCCCCCCCCCCCGCATCAGCTGCATG / CACAGTGTGTTGTA / GGGGGGGGGGAAAA”: the Kd in data set [1] turned out to be 81 nM; in data set [2] it was 21 nM.

B1: fork DNA without abasic site (Oligos D, F, G, H) (structured_DNA)
DNA 1: CATGCAGCTGATGCGTACAACACACTGTG
DNA 2: TTTTCCCCCCCCCCCGCATCAGCTGCATG
DNA 3: CACAGTGTGTTGTA
DNA 4: GGGGGGGGGGAAAA
Turning to B1, the binding result in data set [3] is “binds”.
